Literature values, collected in paper PMC6293969.

Assays:
CLK1 (Homo sapiens) = CLK1 (Homo sapiens) (UniProt P49759)
SRSF1 (Homo sapiens) = SRSF1 (Homo sapiens) (UniProt Q07955)
Chain of UniProt Q07955 (Q07955 2-248): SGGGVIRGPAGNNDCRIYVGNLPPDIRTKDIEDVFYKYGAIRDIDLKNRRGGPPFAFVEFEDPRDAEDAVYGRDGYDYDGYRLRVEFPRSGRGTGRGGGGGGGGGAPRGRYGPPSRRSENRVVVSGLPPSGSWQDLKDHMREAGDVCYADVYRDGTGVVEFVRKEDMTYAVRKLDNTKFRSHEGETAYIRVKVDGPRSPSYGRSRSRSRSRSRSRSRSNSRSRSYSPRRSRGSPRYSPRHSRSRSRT

Chain of UniProt P49759 (P49759 whole entry): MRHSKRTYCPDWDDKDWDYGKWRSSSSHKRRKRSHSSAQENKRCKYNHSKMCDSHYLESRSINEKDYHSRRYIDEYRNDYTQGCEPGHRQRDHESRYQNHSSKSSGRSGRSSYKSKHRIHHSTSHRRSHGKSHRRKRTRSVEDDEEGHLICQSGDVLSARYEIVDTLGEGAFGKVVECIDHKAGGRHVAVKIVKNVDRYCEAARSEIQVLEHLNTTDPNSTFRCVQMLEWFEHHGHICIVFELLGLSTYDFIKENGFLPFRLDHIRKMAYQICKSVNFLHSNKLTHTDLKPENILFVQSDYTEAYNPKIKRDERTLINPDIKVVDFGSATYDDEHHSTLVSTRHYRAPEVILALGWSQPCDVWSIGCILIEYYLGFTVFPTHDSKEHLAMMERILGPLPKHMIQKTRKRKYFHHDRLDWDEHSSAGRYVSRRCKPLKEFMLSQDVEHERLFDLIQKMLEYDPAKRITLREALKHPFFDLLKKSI

Substance: SRPK1 (from UniProt Q96SB4)
- Kd (CLK1 (Homo sapiens)): 20 nM
- Kd (SRSF1 (Homo sapiens)): 100 nM
